Positions count from the first letter of the chain named.
Assays:
[1] = target: T1, cynomolgus monkey B7H4 on the cell surface (cynomolgus monkey, UniProt A0A2K5U6P5 25-282); experiment: FACS, CHOK1/cyno B7H4 cells
T1 construct: whole, on cells; also called CHOK1/cyno B7H4
T1 sequence: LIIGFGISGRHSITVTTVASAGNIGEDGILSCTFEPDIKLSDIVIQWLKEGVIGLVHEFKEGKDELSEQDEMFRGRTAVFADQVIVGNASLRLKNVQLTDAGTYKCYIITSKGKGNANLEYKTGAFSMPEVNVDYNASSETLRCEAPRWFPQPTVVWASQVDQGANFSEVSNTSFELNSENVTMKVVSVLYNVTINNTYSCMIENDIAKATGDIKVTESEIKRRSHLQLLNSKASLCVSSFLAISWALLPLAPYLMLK
Procedure: (§1) This example is intended to investigate the in vitro binding activity of anti-human B7H4 H2L2 monoclonal antibody to human/cynomolgus monkey/mouse B7H4. Antibody binding experiments at the cellular level were performed using CHOK1 cell line overexpressing human B7H4 (CHOK1/hu B7H4, Harbour BioMed), CHOK1 cell line overexpressing cynomolgus monkey B7H4 (CHOK1/cyno B7H4, Harbour BioMed), CHOK1 cell line overexpressing mouse B7H4 (CHOK1/m B7H4, Harbour BioMed) and SK-BR-3 cell line (ATCC® HTB-30) highly expressing human B7H4. Briefly, CHOK1/hu B7H4 cells, CHOK1/cyno B7H4 cells, CHOK1/m B7H4 cells or SK-BR-3 cells were digested and resuspended with PBS containing 2% BSA. The cell density was adjusted to 1×10⁶ cells/mL. The cells were seeded in a 96-well V-bottom plate (Corning, #3894) at 100 μL/well, followed by the addition of test antibodies diluted in a 3-fold concentration gradient of 2 times the final concentration, each at 100 μL/well. The cells were incubated at 4° C. for 2 h away from light. Thereafter, the cells in each well were rinsed twice with 100 μL of pre-cooled PBS containing 2% BSA, and centrifuged at 500 g at 4° C. for 5 min, and then the supernatant was discarded. Then 100 μL of a fluorescent secondary antibody (Alexa Fluor 488-conjugated AffiniPure Goat Anti-Human IgG, Fcγ Fragment Specific, Jackson, #109-545-098, 1:500 diluted) was added to each well. The plate was incubated away from light at 4° C. for 1 h. The cells in each well were washed twice with 100 μL of pre-cooled PBS containing 2% BSA, and centrifuged at 500 g at 4° C. for 5 minutes, and then the supernatant was discarded. Finally, the cells in each well were resuspended with 200 μL of pre-cooled PBS containing 2% BSA, and the fluorescence signal values were read using an ACEA Novocyte3000 flow cytometer.

[2] = target: T2, B7-H4 (Acro Biosystems, #B74-H82E2) (UniProt Q7Z7D3 29-258); experiment: BLI epitope competition; 1st Ab = row; competitor (2nd Ab) PR002421; inhibition of the 2nd Ab signal
T2 construct: Bought protein; also called B7-H4 captured on SA sensor
T2 sequence (looked up): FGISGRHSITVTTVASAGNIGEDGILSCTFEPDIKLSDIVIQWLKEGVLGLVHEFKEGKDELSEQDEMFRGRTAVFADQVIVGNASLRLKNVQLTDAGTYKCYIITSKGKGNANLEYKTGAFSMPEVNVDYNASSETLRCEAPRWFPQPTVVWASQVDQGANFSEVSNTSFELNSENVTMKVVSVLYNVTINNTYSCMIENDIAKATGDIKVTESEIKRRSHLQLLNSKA
Procedure: Step one, acquisition of 100% signal of antibodies: B7-H4 (Acro Biosystems, #B74-H82E2-200 μg) was captured at a capture height of 0.25 nm using an SA sensor (Fortebio, #18-5019). The sensor was equilibrated in a buffer for 120 s and then immersed in each antibody diluted to 100 nM for 240 s, and the final signal of the antibody binding to B7-H4 was recorded as the 100% signal of the antibody. Step two, epitope competition experiment: B7-H4 was captured using an SA sensor at a capture height of 0.25 nm. The sensor was immersed in a primary antibody (at a concentration of 100 nM) for 240 s, and then the SA sensor was immersed in a mixture of the primary and secondary antibodies (both at a final concentration of 100 nM) for 240 s, and the difference in signals after immersion of the sensor in the antibody mixture was recorded as the signal of the antibody as the secondary antibody. The inhibition rate was calculated according to the following formula: […]

[3] = target: T3, human B7H4 on the cell surface (human, UniProt Q7Z7D3 25-282); experiment: FACS, SK-BR-3 cells
T3 construct: whole, on cells; also called CHOK1/hu B7H4; B7H4 on SK-BR-3
T3 sequence (looked up): T1 sequence with I53L, L242F, A252S
Procedure: as §1

B1: Control antibody 1 (PR000157) (antibody, V domains shown)
VH: EVQLVQSGAEVKKPGASVKVSCKASGYTFTSYWIGWVRQAPGQGLEWIGDIYPGGGYTNYNEKFKGRVTITRDTSTSTAYLELSSLRSEDTAVYYCARLAGSSYRGAMDSWGQGTLVTVSS
VL: DIQMTQSPSSLSASVGDRVTITCKASQGFNKYVAWYQQKPGKAPKLLIYYTSTLQPGVPSRFSGSGSGRDYTLTISSLQPEDFATYYCLQYGDLLYAFGQGTKVEIKR
notes: Anti-B7H4 IgG1 control antibody from WO2016040724A1; also called 1D11.v1.9varC2
EC50 [1]: 2.06 nM
Maximum MFI [1]: 1.32e+06 MFI
Competitive inhibition rate (%) [2]: 1.97%
EC50 [3]: 1.18 nM
Maximum MFI [3]: 316000 MFI

From patent US20230312722A1 (NONA BIOSCIENCES SUZHOU, published 2023)
